One assay deals with T1, Pdx1 (Bacillus subtilis, UniProt P37527).
T1 construct: gene pdxS; full-length Pdx1 alone, native (untagged) from pETBsPdx1; dodecamer
The experiment in a line: ESI-MS (+[…] Da after NaBH4 reduction), tryptic peptide MALDI-TOF/TOF. The class given is biochemical. The settings on record: covalent Schiff base at K149 (P2 site); PLP made de novo from R5P, DL-G3P and ammonium sulfate.

The target of assay [1] is T2, Pdx1 wild type (Bacillus subtilis), native (untagged) (Bacillus subtilis, UniProt P37527 1-294).
T2 construct: Pdx1, synthase subunit of PLP synthase, Bacillus subtilis; construct pETBsPdx1 of Raschle et al. (2005); Native means untagged; Dodecamer by SEC-MALS; also called BsPdx1 wild type; PLP synthase synthase subunit; source: construct pETBsPdx1; expressed and purified as described by Raschle et al. (2005); copies: 12
T2 sequence: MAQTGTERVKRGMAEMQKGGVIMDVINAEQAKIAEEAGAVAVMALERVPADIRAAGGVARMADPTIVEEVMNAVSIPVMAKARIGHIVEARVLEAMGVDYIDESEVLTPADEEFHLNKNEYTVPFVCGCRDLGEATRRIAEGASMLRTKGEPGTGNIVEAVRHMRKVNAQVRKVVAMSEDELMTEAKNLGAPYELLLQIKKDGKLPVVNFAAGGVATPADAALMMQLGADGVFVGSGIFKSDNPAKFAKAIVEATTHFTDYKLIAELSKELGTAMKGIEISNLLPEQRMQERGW
The experiment in a line: other fluorescence titration; intrinsic protein fluorescence of Pdx1 titrated with increasing concentrations of Pdx2 H170N in the presence of glutamine, without R5P; decrease in fluorescence intensity; done as described in ref. 21. The settings on record: both partners purified.

The target of assay [2] is T3, Pdx1 R288A (Bacillus subtilis), native (untagged) (Bacillus subtilis, UniProt P37527 1-294, R288A).
T3 construct: Pdx1, synthase subunit of PLP synthase, Bacillus subtilis; also called Pdx1 R288A mutein; source: site directed mutagenesis of Pdx1; expressed and purified as described by Raschle et al. (2005); copies: 12
T3 sequence: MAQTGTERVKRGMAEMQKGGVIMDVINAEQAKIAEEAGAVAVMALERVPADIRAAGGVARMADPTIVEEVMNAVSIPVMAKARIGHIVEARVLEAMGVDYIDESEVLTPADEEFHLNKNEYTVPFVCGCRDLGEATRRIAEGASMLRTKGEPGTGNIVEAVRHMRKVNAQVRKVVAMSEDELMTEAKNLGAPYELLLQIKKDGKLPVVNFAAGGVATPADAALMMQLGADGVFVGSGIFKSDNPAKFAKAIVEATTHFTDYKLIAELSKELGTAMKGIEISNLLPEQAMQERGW
The assay is described as above. The settings on record: both partners purified.

Assay [3] addresses T4, Pdx1 R288K (Bacillus subtilis), native (untagged) (Bacillus subtilis, UniProt P37527 1-294, R288K).
T4 construct: Pdx1, synthase subunit of PLP synthase, Bacillus subtilis; also called Pdx1 R288K mutein; source: site directed mutagenesis of Pdx1; expressed and purified as described by Raschle et al. (2005)
T4 sequence: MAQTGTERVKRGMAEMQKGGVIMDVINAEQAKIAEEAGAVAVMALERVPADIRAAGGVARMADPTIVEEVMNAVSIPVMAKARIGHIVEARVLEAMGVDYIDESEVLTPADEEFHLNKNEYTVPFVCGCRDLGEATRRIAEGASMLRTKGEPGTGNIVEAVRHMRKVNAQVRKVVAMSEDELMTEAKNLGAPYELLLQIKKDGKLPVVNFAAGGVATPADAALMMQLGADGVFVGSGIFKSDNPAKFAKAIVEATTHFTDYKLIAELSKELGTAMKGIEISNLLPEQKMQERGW
Described as above. The settings on record: both partners purified.

In the case of `Cc1ncc(COP(=O)(O)O)c(C=O)c1O` [pyridoxal 5′-phosphate], the “ESI-MS (+231 Da after NaBH4 reduction), tryptic peptide MALDI-TOF/TOF” value on Pdx1 is “demonstrate that PLP is covalently bound to Pdx1”.

B1: Pdx2 H170N (Bacillus subtilis), catalytically inert mutein (enzyme, UniProt P37528 1-196, looked up)
chain: MLTIGVLGLQGAVREHIHAIEACGAAGLVVKRPEQLNEVDGLILPGGESTTMRRLIDTYQFMEPLREFAAQGKPMFGTCAGLIILAKEIAGSDNPHLGLLNVVVERNSFGRQVDSFEADLTIKGLDEPFTGVFIRAPHILEAGENVEVLSEHNGRIVAAKQGQFLGCSFNPELTEDHRVTQLFVEMVEEYKQKALV
notes: Pdx2, glutaminase subunit of PLP synthase, Bacillus subtilis; It was used together with glutamine (Michaelis complex of Pdx2 H170N and glutamine); also called Pdx2-His6 H170N; Pdx2 H170N mutein; source: construct Pdx2-His6 H170N of Strohmeier et al. (2006); expressed and purified as described by Raschle et al. (2005)
As for B1, the binding result in assay [1], in assay [2] and in assay [3] was “binds” each time.

The values above are taken from paper PMC3024981, “It Takes Two to Tango: Defining an Essential Second Active Site in Pyridoxal 5′-Phosphate Synthase” (PLoS ONE, 2011).
